The results in this text go back to the supplement of paper PMC10567573.

B1: ZNF649 (parent)
chain: DECEKAYFYMSCLVKHKRIHSREK
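Further: lentivirally expressed fusions sorted by FACS into six bins by GFP to DsRed ratio, PSI derived from sequencing read proportions per bin multiplied by bin number.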

This data set covers variants of B1. The experiment in a line: protein stability index of a GFP-peptide fusion (GPS, HEK-293T) (PSI 1-6); higher = more stable. As to conditions: c terminus: a fixed tail appended.
Regarding DECEKAYFYMSCLMKHKRIHSREK [V14M], the protein stability index was 2.18.

On to DECEKAYFYMSCLVTHKRIHSREK [K15T], for which the protein stability index is 2.16. Regarding DECEKAYFYMSCLVQHKRIHSREK [K15Q], the protein stability index amounted to 2.3. For the variant DECEKAYFYMSCLVHHKRIHSREK [K15H], the protein stability index was found to be 2.45.

For the variant DECEKAYFYMSCLVFHKRIHSREK [K15F], the protein stability index worked out at 1.87. Next, DECEKAYFYMSCLVMHKRIHSREK [K15M]: 1.9; DECEKAYFYMSCLVNHKRIHSREK [K15N]: 3.16; DECEKAYFYMSCLVPHKRIHSREK [K15P]: 2.02.

With DECEKAYFYMSCLVCHKRIHSREK [K15C], the protein stability index was found to be 2.41.

DECEKAYFYMSCLVVHKRIHSREK [K15V]: the protein stability index was 1.75.

Take DECEKAYFYMSCLVGHKRIHSREK [K15G]: the protein stability index was 2.29.

On to DECEKAYFYMSCLVAHKRIHSREK [K15A], for which the protein stability index is 2.56. In the case of DECEKAYFYMSCLVIHKRIHSREK [K15I], the protein stability index worked out at 2.18. In the case of DECEKAYFYMSCLVSHKRIHSREK [K15S] it was 2.34; in that of DECEKAYFYMSCLVDHKRIHSREK [K15D], 3.24. For DECEKAYFYMSCLVLHKRIHSREK [K15L], the protein stability index stood at 2.15.

Turning to DECEKAYFYMSCLVWHKRIHSREK [K15W], the protein stability index is 1.53. Next, DECEKAYFYMSCLVRHKRIHSREK [K15R]: 2.12; DECEKAYFYMSCLVEHKRIHSREK [K15E]: 2.54. Next, DECEKAYFYMSCLVYHKRIHSREK [K15Y]: 1.92. As for DECEKAYFYMSTLVKHKRIHSREK [C12T], the protein stability index came out at 3.83. In the case of DECEKAYFYMSYLVKHKRIHSREK [C12Y] it was 2.43; in that of DECEKAYFYMSELVKHKRIHSREK [C12E], 3.54; in that of DECEKAYFYMSPLVKHKRIHSREK [C12P], 3.05.

As to DECEKAYFYMSDLVKHKRIHSREK [C12D], the protein stability index came to 4.16.

Consider DECEKAYFYMSGLVKHKRIHSREK [C12G], for which the protein stability index was 3.33. In the case of DECEKAYFYMSNLVKHKRIHSREK [C12N] it was 3.38; in that of DECEKAYFYMSKLVKHKRIHSREK [C12K], 2.8. DECEKAYFYMSLLVKHKRIHSREK [C12L]: the protein stability index is 2.23.

On to DECEKAYFYMSQLVKHKRIHSREK [C12Q], for which the protein stability index was found to be 3.09. Next, DECEKAYFYMSHLVKHKRIHSREK [C12H]: 3.12; DECEKAYFYMSWLVKHKRIHSREK [C12W]: 2.33. Next, DECEKAYFYMSILVKHKRIHSREK [C12I]: 1.64.

Take DECEKAYFYMSALVKHKRIHSREK [C12A]: the protein stability index was found to be 2.83. Next, DECEKAYFYMSFLVKHKRIHSREK [C12F]: 2.69; DECEKAYFYMSVLVKHKRIHSREK [C12V]: 2.42; DECEKAYFYMSSLVKHKRIHSREK [C12S]: 3.68. In the case of DECEKAYFYMSMLVKHKRIHSREK [C12M] it was 2.95; in that of DECEKAYFYMSRLVKHKRIHSREK [C12R], 2.96. Turning to DECEKAYFNMSCLVKHKRIHSREK [Y9N], the protein stability index was found to be 3.93. With DECEKAYFFMSCLVKHKRIHSREK [Y9F], the protein stability index is 2.66. Next, DECEKAYFLMSCLVKHKRIHSREK [Y9L]: 2.35.

Consider DECEKAYFDMSCLVKHKRIHSREK [Y9D], for which the protein stability index worked out at 4.51. Consider DECEKAYFQMSCLVKHKRIHSREK [Y9Q], for which the protein stability index stood at 3. For the variant DECEKAYFIMSCLVKHKRIHSREK [Y9I], the protein stability index stood at 2.42. In the case of DECEKAYFTMSCLVKHKRIHSREK [Y9T] it was 3.94; in that of DECEKAYFMMSCLVKHKRIHSREK [Y9M], 2.57.

Consider DECEKAYFPMSCLVKHKRIHSREK [Y9P], for which the protein stability index is 3.78. Turning to DECEKAYFVMSCLVKHKRIHSREK [Y9V], the protein stability index came to 2.54.

Consider DECEKAYFEMSCLVKHKRIHSREK [Y9E], for which the protein stability index was determined as 3. In the case of DECEKAYFGMSCLVKHKRIHSREK [Y9G] it was 4.26; in that of DECEKAYFKMSCLVKHKRIHSREK [Y9K], 3.73; in that of DECEKAYFRMSCLVKHKRIHSREK [Y9R], 3.9. Next, DECEKAYFSMSCLVKHKRIHSREK [Y9S]: 3.56; DECEKAYFHMSCLVKHKRIHSREK [Y9H]: 3.03.

For the variant DECEKAYFAMSCLVKHKRIHSREK [Y9A], the protein stability index came to 3.71. Turning to DECEKAYFCMSCLVKHKRIHSREK [Y9C], the protein stability index stood at 2.81.

Turning to DECEKAYFWMSCLVKHKRIHSREK [Y9W], the protein stability index turned out to be 3.49.

Regarding DECEKAYFYMSCHVKHKRIHSREK [L13H], the protein stability index was 2.95. In the case of DECEKAYFYMSCDVKHKRIHSREK [L13D] it was 4.25; in that of DECEKAYFYMSCEVKHKRIHSREK [L13E], 3.61; in that of DECEKAYFYMSCYVKHKRIHSREK [L13Y], 2.21.

Turning to DECEKAYFYMSCGVKHKRIHSREK [L13G], the protein stability index was found to be 3.24.

On to DECEKAYFYMSCMVKHKRIHSREK [L13M], for which the protein stability index is 3.25. Next, DECEKAYFYMSCNVKHKRIHSREK [L13N]: 3.65; DECEKAYFYMSCFVKHKRIHSREK [L13F]: 3.18; DECEKAYFYMSCPVKHKRIHSREK [L13P]: 3.1. Turning to DECEKAYFYMSCAVKHKRIHSREK [L13A], the protein stability index is 3.07. Turning to DECEKAYFYMSCSVKHKRIHSREK [L13S], the protein stability index is 2.79. Turning to DECEKAYFYMSCIVKHKRIHSREK [L13I], the protein stability index was 2.29.

For the variant DECEKAYFYMSCTVKHKRIHSREK [L13T], the protein stability index came out at 2.81.

With DECEKAYFYMSCQVKHKRIHSREK [L13Q], the protein stability index is 2.99.

As to DECEKAYFYMSCRVKHKRIHSREK [L13R], the protein stability index was determined as 2.15. In the case of DECEKAYFYMSCVVKHKRIHSREK [L13V] it was 2.98; in that of DECEKAYFYMSCWVKHKRIHSREK [L13W], 3.19. DECEKAYFYMSCKVKHKRIHSREK [L13K]: the protein stability index was determined as 2.68. As to DECEKAYFYMSCCVKHKRIHSREK [L13C], the protein stability index was found to be 3.27. Take DECEKIYFYMSCLVKHKRIHSREK [A6I]: the protein stability index is 1.89. With DECEKRYFYMSCLVKHKRIHSREK [A6R], the protein stability index came to 2.35. Next, DECEKQYFYMSCLVKHKRIHSREK [A6Q]: 3.02; DECEKVYFYMSCLVKHKRIHSREK [A6V]: 1.96.

Turning to DECEKNYFYMSCLVKHKRIHSREK [A6N], the protein stability index amounted to 2.65. In the case of DECEKSYFYMSCLVKHKRIHSREK [A6S] it was 3.04; in that of DECEKKYFYMSCLVKHKRIHSREK [A6K], 2.56.

For the variant DECEKLYFYMSCLVKHKRIHSREK [A6L], the protein stability index is 2.08.

On to DECEKFYFYMSCLVKHKRIHSREK [A6F], for which the protein stability index was found to be 1.64. In the case of DECEKMYFYMSCLVKHKRIHSREK [A6M], the protein stability index came to 1.9. Consider DECEKTYFYMSCLVKHKRIHSREK [A6T], for which the protein stability index stood at 2.55. In the case of DECEKPYFYMSCLVKHKRIHSREK [A6P], the protein stability index is 2.79.

DECEKEYFYMSCLVKHKRIHSREK [A6E]: the protein stability index came to 3.01. Take DECEKGYFYMSCLVKHKRIHSREK [A6G]: the protein stability index amounted to 2.75. In the case of DECEKYYFYMSCLVKHKRIHSREK [A6Y] it was 1.76; in that of DECEKWYFYMSCLVKHKRIHSREK [A6W], 2.03. In the case of DECEKHYFYMSCLVKHKRIHSREK [A6H] it was 2.58.
